# System: Escherichia coli TOP10
# Test: shrunken log2 fold change of peptide-encoding DNA abundance (4.5 h post-induction vs induction); higher = less antimicrobial activity (less host growth inhibition)
# Conditions: time post-induction: 4.5 h; library: site-saturation at positions 5, 18, 19, 20
# 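Further: peptides expressed intracellularly from a pBAD plasmid library in pooled LB shake-flask culture, induced with 0.3% L-arabinose, DNA abundance read by NGS, three biological replicates, DESeq2 with apeglm shrinkage.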
row,Sequence,shrunken log2 fold change
1,RRIRRRPPRLPRPRPRPYRGPRP,-0.191
2,RRIRRRPPRLPRPRPRPYRMPRP,-0.292
3,RRIRRRPPRLPRPRPRPYSQPRP,-0.032
4,RRIRRRPPRLPRPRPRPYSRPRP,-0.391
5,RRIRRRPPRLPRPRPRPYSTPRP,-0.295
6,RRIRRRPPRLPRPRPRPYSYPRP,-0.0587
7,RRIRRRPPRLPRPRPRPYTQPRP,-0.141
8,RRIRRRPPRLPRPRPRPYTRPRP,0.000194
9,RRIRRRPPRLPRPRPRPYTWPRP,-0.299
10,RRIRRRPPRLPRPRPRPYVEPRP,-0.482
11,RRIRRRPPRLPRPRPRPYYWPRP,-0.0449
12,RRIRSRPPRLPRPRPRPACDPRP,0.119
13,RRIRSRPPRLPRPRPRPACFPRP,1.54
14,RRIRSRPPRLPRPRPRPACGPRP,0.436
15,RRIRSRPPRLPRPRPRPADYPRP,-0.455
16,RRIRSRPPRLPRPRPRPAFNPRP,0.0949
17,RRIRSRPPRLPRPRPRPAGTPRP,1.67
18,RRIRSRPPRLPRPRPRPAHAPRP,0.121
19,RRIRSRPPRLPRPRPRPAHDPRP,0.162
20,RRIRSRPPRLPRPRPRPAHGPRP,0.153
21,RRIRSRPPRLPRPRPRPAHMPRP,-0.138
22,RRIRSRPPRLPRPRPRPAHYPRP,-0.131
23,RRIRSRPPRLPRPRPRPAILPRP,-0.313
24,RRIRSRPPRLPRPRPRPAIRPRP,-0.0385
25,RRIRSRPPRLPRPRPRPALGPRP,0.505

row,Sequence,shrunken log2 fold change
1,RRIRSRPPRLPRPRPRPALQPRP,0.441
2,RRIRSRPPRLPRPRPRPALVPRP,0.398
3,RRIRSRPPRLPRPRPRPAMYPRP,-0.184
4,RRIRSRPPRLPRPRPRPANWPRP,0.343
5,RRIRSRPPRLPRPRPRPAPCPRP,0.308
6,RRIRSRPPRLPRPRPRPAPTPRP,0.732
7,RRIRSRPPRLPRPRPRPAQRPRP,0.105
8,RRIRSRPPRLPRPRPRPASCPRP,0.131
9,RRIRSRPPRLPRPRPRPASWPRP,0.363
10,RRIRSRPPRLPRPRPRPAVKPRP,-0.177
11,RRIRSRPPRLPRPRPRPAWEPRP,0.499
12,RRIRSRPPRLPRPRPRPAWRPRP,0.567
13,RRIRSRPPRLPRPRPRPCALPRP,-0.242
14,RRIRSRPPRLPRPRPRPCAQPRP,0.00151
15,RRIRSRPPRLPRPRPRPCCNPRP,-0.0171
16,RRIRSRPPRLPRPRPRPCGCPRP,-0.00437
17,RRIRSRPPRLPRPRPRPCGRPRP,-0.485
18,RRIRSRPPRLPRPRPRPCHEPRP,0.0697
19,RRIRSRPPRLPRPRPRPCHFPRP,-0.186
20,RRIRSRPPRLPRPRPRPCIMPRP,-0.105
21,RRIRSRPPRLPRPRPRPCKCPRP,-0.359
22,RRIRSRPPRLPRPRPRPCKVPRP,-0.265
23,RRIRSRPPRLPRPRPRPCLLPRP,-0.284
24,RRIRSRPPRLPRPRPRPCLMPRP,-0.135
25,RRIRSRPPRLPRPRPRPCLNPRP,-0.0696

row,Sequence,shrunken log2 fold change
1,RRIRSRPPRLPRPRPRPCMAPRP,-0.182
2,RRIRSRPPRLPRPRPRPCNDPRP,-0.261
3,RRIRSRPPRLPRPRPRPCNMPRP,-0.221
4,RRIRSRPPRLPRPRPRPCNVPRP,-0.175
5,RRIRSRPPRLPRPRPRPCPKPRP,0.355
6,RRIRSRPPRLPRPRPRPCQDPRP,-0.0622
7,RRIRSRPPRLPRPRPRPCSKPRP,-0.234
8,RRIRSRPPRLPRPRPRPCSYPRP,-0.379
9,RRIRSRPPRLPRPRPRPCTAPRP,-0.231
10,RRIRSRPPRLPRPRPRPCVVPRP,-0.266
11,RRIRSRPPRLPRPRPRPCWFPRP,-0.0822
12,RRIRSRPPRLPRPRPRPCWMPRP,-0.0635
13,RRIRSRPPRLPRPRPRPDAWPRP,0.545
14,RRIRSRPPRLPRPRPRPDDFPRP,-0.151
15,RRIRSRPPRLPRPRPRPDDGPRP,0.00408
16,RRIRSRPPRLPRPRPRPDDHPRP,-0.0124
17,RRIRSRPPRLPRPRPRPDFKPRP,-0.0946
18,RRIRSRPPRLPRPRPRPDGIPRP,-0.0491
19,RRIRSRPPRLPRPRPRPDHRPRP,0.0482
20,RRIRSRPPRLPRPRPRPDIAPRP,-0.0218
21,RRIRSRPPRLPRPRPRPDIHPRP,-1.3
22,RRIRSRPPRLPRPRPRPDKYPRP,-0.845
23,RRIRSRPPRLPRPRPRPDLRPRP,0.248
24,RRIRSRPPRLPRPRPRPDMNPRP,0.0168
25,RRIRSRPPRLPRPRPRPDNAPRP,-0.201

row,Sequence,shrunken log2 fold change
1,RRIRSRPPRLPRPRPRPDNNPRP,-0.268
2,RRIRSRPPRLPRPRPRPDNTPRP,-0.44
3,RRIRSRPPRLPRPRPRPDREPRP,0.154
4,RRIRSRPPRLPRPRPRPDRIPRP,-0.249
5,RRIRSRPPRLPRPRPRPDRKPRP,-0.0693
6,RRIRSRPPRLPRPRPRPDSIPRP,0.0681
7,RRIRSRPPRLPRPRPRPDTMPRP,-0.462
8,RRIRSRPPRLPRPRPRPDTTPRP,-0.191
9,RRIRSRPPRLPRPRPRPDVCPRP,0.0421
10,RRIRSRPPRLPRPRPRPDVYPRP,-0.0361
11,RRIRSRPPRLPRPRPRPEAGPRP,1.34
12,RRIRSRPPRLPRPRPRPEAIPRP,0.748
13,RRIRSRPPRLPRPRPRPEDPPRP,0.931
14,RRIRSRPPRLPRPRPRPEDVPRP,0.183
15,RRIRSRPPRLPRPRPRPEGHPRP,0.0136
16,RRIRSRPPRLPRPRPRPEGIPRP,0.0592
17,RRIRSRPPRLPRPRPRPEGWPRP,1.18
18,RRIRSRPPRLPRPRPRPEHKPRP,-0.156
19,RRIRSRPPRLPRPRPRPEIGPRP,0.291
20,RRIRSRPPRLPRPRPRPEIYPRP,-0.295
21,RRIRSRPPRLPRPRPRPEKDPRP,0.124
22,RRIRSRPPRLPRPRPRPELNPRP,0.399
23,RRIRSRPPRLPRPRPRPEMDPRP,-0.0847
24,RRIRSRPPRLPRPRPRPEMPPRP,0.00153
25,RRIRSRPPRLPRPRPRPENIPRP,-0.278

row,Sequence,shrunken log2 fold change
1,RRIRSRPPRLPRPRPRPENMPRP,-0.459
2,RRIRSRPPRLPRPRPRPERSPRP,0.206
3,RRIRSRPPRLPRPRPRPESGPRP,0.351
4,RRIRSRPPRLPRPRPRPESKPRP,0.385
5,RRIRSRPPRLPRPRPRPESYPRP,1.29
6,RRIRSRPPRLPRPRPRPETDPRP,0.392
7,RRIRSRPPRLPRPRPRPETPPRP,1.01
8,RRIRSRPPRLPRPRPRPEYHPRP,-0.282
9,RRIRSRPPRLPRPRPRPEYIPRP,-0.0603
10,RRIRSRPPRLPRPRPRPFAGPRP,-0.00284
11,RRIRSRPPRLPRPRPRPFCSPRP,-0.212
12,RRIRSRPPRLPRPRPRPFFTPRP,-0.00429
13,RRIRSRPPRLPRPRPRPFHFPRP,-0.308
14,RRIRSRPPRLPRPRPRPFHHPRP,-0.804
15,RRIRSRPPRLPRPRPRPFHKPRP,-0.0363
16,RRIRSRPPRLPRPRPRPFKNPRP,-0.378
17,RRIRSRPPRLPRPRPRPFLQPRP,-0.267
18,RRIRSRPPRLPRPRPRPFNSPRP,-0.116
19,RRIRSRPPRLPRPRPRPFQCPRP,-0.461
20,RRIRSRPPRLPRPRPRPFRHPRP,-0.0389
21,RRIRSRPPRLPRPRPRPFSCPRP,-0.0153
22,RRIRSRPPRLPRPRPRPFSEPRP,0.00901
23,RRIRSRPPRLPRPRPRPFVFPRP,-0.102
24,RRIRSRPPRLPRPRPRPFVRPRP,0.0631
25,RRIRSRPPRLPRPRPRPFWFPRP,-0.113

row,Sequence,shrunken log2 fold change
1,RRIRSRPPRLPRPRPRPFYQPRP,-0.308
2,RRIRSRPPRLPRPRPRPFYTPRP,-0.903
3,RRIRSRPPRLPRPRPRPGAEPRP,0.606
4,RRIRSRPPRLPRPRPRPGDGPRP,0.78
5,RRIRSRPPRLPRPRPRPGEGPRP,0.367
6,RRIRSRPPRLPRPRPRPGEHPRP,0.0053
7,RRIRSRPPRLPRPRPRPGETPRP,0.488
8,RRIRSRPPRLPRPRPRPGFRPRP,0.165
9,RRIRSRPPRLPRPRPRPGGCPRP,0.304
10,RRIRSRPPRLPRPRPRPGGGPRP,0.908
11,RRIRSRPPRLPRPRPRPGGHPRP,0.161
12,RRIRSRPPRLPRPRPRPGGNPRP,0.163
13,RRIRSRPPRLPRPRPRPGGVPRP,0.326
14,RRIRSRPPRLPRPRPRPGHGPRP,-0.254
15,RRIRSRPPRLPRPRPRPGHLPRP,-0.236
16,RRIRSRPPRLPRPRPRPGHYPRP,-0.645
17,RRIRSRPPRLPRPRPRPGKMPRP,-0.0839
18,RRIRSRPPRLPRPRPRPGLPPRP,0.225
19,RRIRSRPPRLPRPRPRPGPNPRP,-0.0665
20,RRIRSRPPRLPRPRPRPGRKPRP,0.133
21,RRIRSRPPRLPRPRPRPGRLPRP,0.00392
22,RRIRSRPPRLPRPRPRPGTGPRP,0.103
23,RRIRSRPPRLPRPRPRPGVIPRP,-0.0412
24,RRIRSRPPRLPRPRPRPGVWPRP,0.74
25,RRIRSRPPRLPRPRPRPHCGPRP,-0.0953
